Source: the Immune Epitope Database (IEDB)
Values belong to the sequence of their own block, whether it stands above or below them.

What was measured:
HLA-A*01:01 [1] = experiment: IEDB peptide-MHC binding, purified MHC/direct/fluorescence; filed as Kd, often an IC50 or EC50 that approximates it; ≥ and ≤ were set here for values at or beyond the usual limits of such assays; conditions: source organism: Influenza A virus (A/New Caledonia/20/1999(H1N1))
HLA-A*02:01 [2] = experiment: as above; conditions: source organism: Influenza A virus (A/New Caledonia/20/1999(H1N1))
HLA-A*02:11 = experiment: as above; conditions: source organism: Influenza A virus(A/swine/Henan/8/2004(H9N2))
HLA-A*03:01 = experiment: as above; conditions: source organism: Influenza A virus (A/New Caledonia/20/1999(H1N1))
HLA-A*11:01 = experiment: as above; conditions: source organism: Influenza A virus (A/New Caledonia/20/1999(H1N1))
HLA-A*31:01 = experiment: as above; conditions: source organism: Influenza A virus (A/New Caledonia/20/1999(H1N1))
HLA-A*69:01 = experiment: as above; conditions: source organism: Influenza A virus (A/New Caledonia/20/1999(H1N1))
HLA-B*07:02 = experiment: as above
HLA-B*08:03 = experiment: as above; conditions: source organism: Influenza A virus(A/swine/Henan/8/2004(H9N2))
HLA-B*15:01 = experiment: as above; conditions: source organism: Influenza A virus (A/New Caledonia/20/1999(H1N1))
HLA-B*15:02 = experiment: as above; conditions: source organism: Influenza A virus(A/swine/Henan/8/2004(H9N2))
HLA-B*15:17 = experiment: as above
HLA-B*27:05 = experiment: as above; conditions: source organism: Influenza A virus (A/New Caledonia/20/1999(H1N1))
HLA-B*46:01 = experiment: as above; conditions: source organism: Influenza A virus (A/New Caledonia/20/1999(H1N1))
HLA-B*48:01 = experiment: as above; conditions: source organism: Influenza A virus (A/New Caledonia/20/1999(H1N1))
HLA-B*57:01 = experiment: as above
HLA-B*58:01 = experiment: as above
HLA-C*06:02 [3] = experiment: as above; conditions: source organism: Influenza A virus (A/swine/Italy/1509-6/97(H1N1))
HLA-C*14:02 [4] = experiment: as above; conditions: source organism: Influenza A virus (A/swine/Italy/1509-6/97(H1N1))
HLA-C*15:02 = experiment: as above
HLA-A*26:02 = experiment: IEDB peptide-MHC binding, purified MHC/competitive/fluorescence; filed as Kd, often an IC50 or EC50 that approximates it; ≥ and ≤ were set here for values at or beyond the usual limits of such assays; conditions: source organism: Influenza A virus (A/swine/Italy/1509-6/97(H1N1))
HLA-A*26:03 = experiment: as above; conditions: source organism: Influenza A virus (A/swine/Italy/1509-6/97(H1N1))
HLA-A*68:02 = experiment: as above; conditions: source organism: Influenza A virus (A/swine/Italy/1509-6/97(H1N1))
HLA-B*08:01 = experiment: as above; conditions: source organism: Influenza A virus (A/swine/Italy/1509-6/97(H1N1))
HLA-B*15:09 = experiment: as above; conditions: source organism: Influenza A virus (A/swine/Italy/1509-6/97(H1N1))
HLA-B*39:01 = experiment: as above; conditions: source organism: Influenza A virus (A/swine/Italy/1509-6/97(H1N1))
HLA-A*32:07 = experiment: as above; conditions: source organism: Influenza A virus (A/Fort Monmouth/1/1947-mouse adapted(H1N1))
HLA-A*32:15 = experiment: as above; conditions: source organism: Influenza A virus (A/Fort Monmouth/1/1947-mouse adapted(H1N1))
HLA-A*68:23 = experiment: as above; conditions: source organism: Influenza A virus (A/Fort Monmouth/1/1947-mouse adapted(H1N1))
HLA-B*15:42 = experiment: as above
HLA-B*45:06 = experiment: as above
HLA-B*83:01 = experiment: as above
HLA-A*80:01 = experiment: IEDB peptide-MHC binding, purified MHC/direct/fluorescence; filed as Kd, often an IC50 or EC50 that approximates it; ≥ and ≤ were set here for values at or beyond the usual limits of such assays; conditions: source organism: Mus musculus
HLA-A*01:01 [5] = experiment: IEDB peptide-MHC binding, purified MHC/competitive/fluorescence; filed as Kd, often an IC50 or EC50 that approximates it; ≥ and ≤ were set here for values at or beyond the usual limits of such assays; conditions: source organism: Homo sapiens
HLA-A*29:02 [6] = experiment: as above; conditions: source organism: Homo sapiens
HLA-C*06:02 [7] = experiment: as above; conditions: source organism: Homo sapiens
HLA-C*14:02 [8] = experiment: as above; conditions: source organism: Homo sapiens
HLA-A*02:19 = experiment: IEDB peptide-MHC binding, purified MHC/direct/fluorescence; filed as Kd, often an IC50 or EC50 that approximates it; ≥ and ≤ were set here for values at or beyond the usual limits of such assays; conditions: source organism: Francisella tularensis subsp. tularensis FSC033
HLA-A*02:50 = experiment: as above; conditions: source organism: Francisella tularensis subsp. tularensis FSC033
HLA-A*23:01 = experiment: as above; conditions: source organism: Francisella tularensis subsp. tularensis FSC033
HLA-A*24:03 = experiment: as above; conditions: source organism: Francisella tularensis subsp. tularensis FSC033
HLA-A*29:02 [9] = experiment: as above; conditions: source organism: Francisella tularensis subsp. tularensis FSC033
HLA-A*30:01 = experiment: as above; conditions: source organism: Francisella tularensis subsp. tularensis FSC033
HLA-B*18:01 = experiment: as above; conditions: source organism: Francisella tularensis subsp. tularensis FSC033
HLA-B*40:01 = experiment: as above; conditions: source organism: Francisella tularensis subsp. tularensis FSC033
HLA-B*44:02 = experiment: as above; conditions: source organism: Francisella tularensis subsp. tularensis FSC033
HLA-B*51:01 = experiment: as above; conditions: source organism: Francisella tularensis subsp. tularensis FSC033
HLA-A*26:01 = experiment: IEDB peptide-MHC binding, purified MHC/competitive/fluorescence; filed as Kd, often an IC50 or EC50 that approximates it; ≥ and ≤ were set here for values at or beyond the usual limits of such assays; conditions: source organism: Francisella tularensis subsp. tularensis FSC198
HLA-A*02:01 [10] = experiment: IEDB peptide-MHC binding, cellular MHC/competitive/fluorescence; ≥ and ≤ were set here for values at or beyond the usual limits of such assays; conditions: source organism: Homo sapiens
[11] = source organism: Influenza A virus (A/New Caledonia/20/1999(H1N1))
[12] = source organism: Influenza A virus (A/finch/Canada/NS1301/2001(H3N8))
[13] = source organism: Influenza A virus (A/Fort Monmouth/1/1947-mouse adapted(H1N1))
[14] = source organism: Francisella tularensis subsp. tularensis FSC033

Sequence: WMACHSAAF
Kd (HLA-A*01:01 [1]): ≥ 20000 nM | Kd (HLA-A*02:01 [2]): ≥ 20000 nM | Kd (HLA-A*02:11): 60 nM | Kd (HLA-A*03:01): ≥ 20000 nM | Kd (HLA-A*11:01): ≥ 20000 nM | Kd (HLA-A*31:01): ≥ 20000 nM | Kd (HLA-A*69:01): ≥ 20000 nM | Kd (HLA-B*07:02; [11]): 9800 nM | Kd (HLA-B*08:03): 83 nM | Kd (HLA-B*15:01): 18 nM | Kd (HLA-B*15:02): 5 nM | Kd (HLA-B*15:17; [11]): 189 nM | Kd (HLA-B*27:05): 6300 nM | Kd (HLA-B*46:01): 756 nM | Kd (HLA-B*48:01): 1430 nM | Kd (HLA-B*57:01; [11]): ≥ 20000 nM | Kd (HLA-B*58:01; [11]): ≥ 20000 nM | Kd (HLA-C*06:02 [3]): ≥ 20000 nM | Kd (HLA-C*14:02 [4]): 43 nM | Kd (HLA-C*15:02; source organism: Influenza A virus (A/swine/Italy/1509-6/97(H1N1))): ≥ 20000 nM | Kd (HLA-A*26:02): 0.4 nM | Kd (HLA-A*26:03): 158 nM | Kd (HLA-A*68:02): 929 nM | Kd (HLA-B*08:01): 77.2 nM | Kd (HLA-B*15:09): 600 nM | Kd (HLA-B*39:01): 59.5 nM

Sequence: GTFEFTSFF
Kd (HLA-B*15:17; [12]): 5.9 nM | Kd (HLA-B*57:01; [12]): 360 nM | Kd (HLA-B*58:01; [12]): 496 nM | Kd (HLA-C*15:02; [13]): 3660 nM | Kd (HLA-A*32:07): 23.8 nM | Kd (HLA-A*32:15): 893 nM | Kd (HLA-A*68:23): 5.7 nM | Kd (HLA-B*15:42; [13]): ≥ 5000 nM | Kd (HLA-B*45:06; [13]): ≥ 5000 nM | Kd (HLA-B*83:01; [13]): ≥ 5000 nM

Kd (HLA-A*80:01): 109 nM | Kd (HLA-A*01:01 [5]): 1400 nM | Kd (HLA-A*29:02 [6]): ≤ 0.1 nM | Kd (HLA-B*15:42; source organism: Homo sapiens): ≥ 5000 nM | Kd (HLA-B*45:06; source organism: Homo sapiens): ≥ 5000 nM | Kd (HLA-B*83:01; source organism: Homo sapiens): ≥ 5000 nM | Kd (HLA-C*06:02 [7]): 663 nM | Kd (HLA-C*14:02 [8]): 0.4 nM
Sequence: TFMDHVLRY

Sequence: NTIEELSGY
Kd (HLA-A*02:19): ≥ 20000 nM | Kd (HLA-A*02:50): ≥ 20000 nM | Kd (HLA-A*23:01): ≥ 20000 nM | Kd (HLA-A*24:03): ≥ 20000 nM | Kd (HLA-A*29:02 [9]): 28 nM | Kd (HLA-A*30:01): ≥ 20000 nM | Kd (HLA-B*07:02; [14]): ≥ 20000 nM | Kd (HLA-B*18:01): ≥ 20000 nM | Kd (HLA-B*40:01): ≥ 20000 nM | Kd (HLA-B*44:02): ≥ 20000 nM | Kd (HLA-B*51:01): ≥ 20000 nM | Kd (HLA-B*57:01; [14]): ≥ 20000 nM | Kd (HLA-B*58:01; [14]): ≥ 20000 nM | Kd (HLA-A*26:01): 0.6 nM

IC50 (HLA-A*02:01 [10]): 1890 nM
Sequence: LLLDVPTAAVQA
